Assays:
target genes of LXR = experiment: Real-time quantitative PCR of target genes of LXR in primary hepatocytes incubated with 4B9; format: cell-based; details: primary mouse hepatocytes, 72 hours, real-time quantitative PCR (FIG. 1e)
From the text: (§1) (a) Steps for preparing ASGR1 monoclonal neutralizing antibody. Purified ASGR1 protein is used as the antigen to immunize rabbits, and after the first round of screening, four B-cell monoclonal antibodies are selected as candidates. The coding region of the variable region of the antibody is then sequenced and cloned into an antibody expression vector, which is transfected into mammalian cells. The efficiency of transfection is confirmed by Western blotting and real-time quantitative PCR. Finally, the rabbit-derived Fc fragment is replaced with a murine Fc fragment. The neutralizing antibody 4B9 is selected for large-scale production and used in subsequent experiments. (b) ASGR1 protein purified from HEK293T cells is stained with Coomassie Brilliant Blue. (c) Huh7 cells are incubated with purified neutralizing antibody for 72 hours, followed by Western blotting analysis of the protein expression of LXRα. (d) Primary hepatocytes are isolated from 8-week-old wild-type C57B/L6 mice. […] The primary hepatocytes are incubated with ASGR1 neutralizing antibody 4B9 for 72 hours, after which cells are collected, total RNA is extracted from the cells, and target genes of LXR are analyzed by real-time quantitative PCR. […]

[1] = system: mice fed a high-fat, high-cholesterol, and cholate (HF/HC/BS) diet; experiment: 4B9 in mice fed HF/HC/BS diet, 14 days (Example 1, FIG. 2); format: in vivo, mouse
From the text: (§2) All data are presented as mean±SEM.
We further investigated whether 4B9 was able to completely simulate the improvement of Asgr1 deletion on high-fat, high-cholesterol conditions.

[2] = system: mice fed a high-fat, high-cholesterol, and cholate (HF/HC/BS) diet; experiment: 4B9 and Ezetimibe, alone or combined, in mice fed HF/HC/BS diet (Example 3, FIG. 4); format: in vivo, mouse
Method: as §2
We then devised an experiment as in FIG. 4 to verify the hypothesis. Mice were randomly divided into 8 groups according to the genotype (n=6) and fed an HF/HC/BS diet. They were intragastrically administered with EZ at 10 mg/kg per day and were intraperitoneally injected with 4B9 at 10 mg/kg every other day. The mice were sacrificed on day 7 to collect their tissues.

LXRα [3] = experiment: Western blotting of LXRα in Huh7 cells incubated with purified neutralizing antibody; format: cell-based, human; details: 72 hours, Western blotting (FIG. 1c)
From the text: as §1

LXRα [4] = experiment: Western blotting of LXRα in primary hepatocytes incubated with monoclonal neutralizing antibodies; format: cell-based, mouse; details: primary hepatocytes of wild-type C57B/L6 mice, various concentrations, 72 hours, Western blotting (FIG. 1d)
[5] = system: mice fed a high-fat, high-cholesterol, and cholate (HF/HC/BS) diet; experiment: 4B9 and atorvastatin, alone or combined, in mice fed HF/HC/BS diet, 14 days (Example 2, FIG. 3)
Method: 8-week-old Asgr1 knockout mice and wild-type littermates are randomly divided into 8 groups as shown in the figure according to the genotype, with 6 mice per group. The mice are given free access to water and fed a high-fat, high-cholesterol, and cholate (HF/HC/BS) diet (60% fat, 1.25% cholesterol, and 0.5% cholate). […] After 14 days, the mice are fasted for 4 hours before being sacrificed. All data are presented as mean±SEM. Statistical significance is calculated using an unpaired two-tailed Student's t-test. *p<0.05, **p<0.01, ***p<0.001. (a) Western blotting analysis of liver samples; (b) total cholesterol in serum; (c) triglyceride in serum; (d) total cholesterol in liver; (e) triglyceride in liver; (f) concentration of cholesterol in bile; (g) total cholesterol in bile; (h) concentration of bile acid in bile; (i) total bile acid in bile; (j) total cholesterol in feces; (k) body weight; (l) daily food intake; (m) ratio of liver weight to body weight; (n) blood glucose; (o) alanine transaminase in serum; (p) aspartate transaminase in serum; (q-r) real-time quantitative PCR analysis of genes related to cholesterol efflux, cholesterol synthesis and absorption, lipid synthesis, and bile acid synthesis in the liver of mice, and genes in other pathways, with cyclophilin as an internal reference; (s) hematoxylin-eosin staining of liver sections; (t) oil red O staining of liver sections.
In the experiment, wild-type littermates were used as a control. All mice were housed in an SPF (specific pathogen-free) facility and kept on a 12-hour light/12-hour dark cycle. 8-week-old male or female mice were fed a high-fat, high-cholesterol, and cholate diet (Research Diets, D12109C) as required by the experimental protocols. For treatments involving antibody neutralization or the combination of antibodies with statins or Ezetimibe, the mice were intraperitoneally injected with antibodies or intragastrically administered with drugs at specified doses. All animals were fasted for 4 hours before being sacrificed.
The collected cells or tissues were lysed in RIPA lysis buffer supplemented with protease and phosphatase inhibitors. The RIPA lysis buffer contained 50 mM Tris-HCl (pH=8.0), 150 mM NaCl, 2 mM MgCl2, 1.5% NP-40, 0.1% SDS, and 0.5% sodium deoxycholate. The protease inhibitor contained 10 μM MG-132, 10 μg/mL leupeptin, 1 mM PMSF, 5 μg/mL pepstatin, 25 μg/mL ALLN, and 1 mM DTT. The protein concentration of the lysate was determined using a BCA method (Thermo Fisher Scientific). The protein samples were incubated with membrane solubilization buffer (62.5 mM Tris-HCl (pH=6.8), 15% SDS, 8 M urea, 10% glycerol, and 100 mM DTT) and 4× loading buffer (150 mM Tris-HCl (pH=6.8), 12% SDS, 30% glycerol, 6% β-mercaptoethanol, and 0.02% bromophenol blue) at 37° C. for 30 minutes. The protein samples were separated by SDS-PAGE and transferred to a PVDF membrane, which was blocked in TBST, i.e., TBS containing 0.075% Tween 20 and 5% skim milk (3% BSA for phosphorylation experiments) for 1 hour. The membrane was incubated overnight at 4° C. with a specified primary antibody, and washed three times with TBST. Finally, Pierce ECL Plus Western blotting substrate (Thermo Fisher Scientific) was used for detection.
Blood was collected from the orbital sinus to obtain serum for the measurement of total cholesterol and triglyceride.

[6] = wild-type mice, HF/HC/BS diet, 4B9 10 mg/kg/day i.p. every other day, 14 days, Western blotting (FIG. 2a)
[7] = sacrificed on day 7, 4B9 10 mg/kg i.p. every other day, EZ 10 mg/kg per day intragastric (FIGS. 4a, 4p-q)

B1: 4B9: ASGR1 monoclonal neutralizing antibody from immunized rabbits, rabbit Fc replaced with mouse Fc; VL SEQ ID NO: 28, VH SEQ ID NO: 29 (antibody, listed as Oryctolagus cuniculus, V domains shown)
VH: QSLEESGGDLVKPGATMTLTCKASGFSFSGSLWICWVRQAPGKGLEWIACIYVGSSGSTYYASWAKGRFTISTTSSTTVTLQMTSLTAADTATYFCARRYTDAYGGYPAGSFVFKLWGPGTLVTVSS
VL: QVLTQTPSPVSAAVGGTVTINCQASQSVYNNKNLGWYQQKPGQPPKLLIYYASDLASGVPSRFKGSGSGKQFTLTISDVQCDDAATYYCQGEFSCSSADCCAFGGGTEVVVK
modifications: mouse Fc
cholesterol efflux-related genes (target genes of LXR) (target genes of LXR): significantly up-regulated | all parameters in Asgr1 knockout mice with or without injection of 4B9 ([1]; Asgr1 knockout mice, HF/HC/BS diet, 4B9 10 mg/kg/day i.p. every other day, 14 days (FIG. 2a)): remained unchanged | real-time quantitative PCR of liver genes (cholesterol efflux, cholesterol synthesis and absorption, lipid synthesis, bile acid metabolism) ([1]; HF/HC/BS diet, 4B9 10 mg/kg/day i.p. every other day, 14 days (FIG. 2b)): consistent with protein-level changes | body weight ([1]; HF/HC/BS diet, 4B9 10 mg/kg/day i.p. every other day, 14 days (FIG. 2n)): no significant changes | daily food intake ([1]; HF/HC/BS diet, 4B9 10 mg/kg/day i.p. every other day, 14 days (FIG. 2o)): no significant changes | ratio of liver weight to body weight ([1]; HF/HC/BS diet, 4B9 10 mg/kg/day i.p. every other day, 14 days (FIG. 2p)): no significant changes | blood glucose ([1]; HF/HC/BS diet, 4B9 10 mg/kg/day i.p. every other day, 14 days (FIG. 2q)): no significant changes | ALT (alanine transaminase in serum) ([1]; HF/HC/BS diet, 4B9 10 mg/kg/day i.p. every other day, 14 days (FIG. 2r)): no significant changes | AST (aspartate transaminase in serum) ([1]; HF/HC/BS diet, 4B9 10 mg/kg/day i.p. every other day, 14 days (FIG. 2s)): no significant changes | total cholesterol in serum ([1]; HF/HC/BS diet, 4B9 10 mg/kg/day i.p. every other day, 14 days, vs control group (FIG. 2c)): significant decrease | total cholesterol in liver ([1]; HF/HC/BS diet, 4B9 10 mg/kg/day i.p. every other day, 14 days, vs control group (FIG. 2e)): significant decrease | triglyceride in liver ([1]; HF/HC/BS diet, 4B9 10 mg/kg/day i.p. every other day, 14 days, vs control group (FIG. 2f)): significant decrease | total amount of total cholesterol in bile ([1]; HF/HC/BS diet, 4B9 10 mg/kg/day i.p. every other day, 14 days, vs control group (FIG. 2i)): significant increase | total cholesterol in feces ([1]; HF/HC/BS diet, 4B9 10 mg/kg/day i.p. every other day, 14 days, vs control group (FIG. 2k)): significant increase | concentration of total bile acid in bile ([1]; HF/HC/BS diet, 4B9 10 mg/kg/day i.p. every other day, 14 days, vs control group (FIG. 2l)): significant increase | total amount of total bile acid in bile ([1]; HF/HC/BS diet, 4B9 10 mg/kg/day i.p. every other day, 14 days, vs control group (FIG. 2m)): significant increase | concentration of total cholesterol in bile ([1]; HF/HC/BS diet, 4B9 10 mg/kg/day i.p. every other day, 14 days, vs control group (FIG. 2h)): significant increase | triglyceride in serum ([1]; HF/HC/BS diet, 4B9 10 mg/kg/day i.p. every other day, 14 days, vs control group (FIG. 2d)): significant decrease | volume of gallbladder ([1]; HF/HC/BS diet, 4B9 10 mg/kg/day i.p. every other day, 14 days, vs control group (FIGS. 2g, j)): significant increase | overall lipid-lowering effect ([1]; summary of Example 1, high-fat, high-cholesterol diet): very significant lipid-lowering effect | BARD1 in liver [1, 6]: significantly reduced | LDLR in liver [1, 6]: remained unchanged | cholesterol efflux-related proteins (LXR, ABCG8, ABCA1, CYP7A1) in liver [1, 6]: significantly increased | lipid synthesis-related proteins SREBP1 and FASN in liver [1, 6]: significantly reduced | p-ACC in liver [1, 6]: significantly up-regulated | body weight ([2]; 8 groups of mice, sacrificed on day 7, 4B9 10 mg/kg i.p. every other day, EZ 10 mg/kg per day intragastric (FIG. 4j)): No significant differences | daily food intake ([2]; 8 groups of mice, sacrificed on day 7, 4B9 10 mg/kg i.p. every other day, EZ 10 mg/kg per day intragastric (FIG. 4k)): No significant differences | ratio of liver weight to body weight ([2]; 8 groups of mice, sacrificed on day 7, 4B9 10 mg/kg i.p. every other day, EZ 10 mg/kg per day intragastric (FIG. 4l)): No significant differences | blood glucose ([2]; 8 groups of mice, sacrificed on day 7, 4B9 10 mg/kg i.p. every other day, EZ 10 mg/kg per day intragastric (FIG. 4m)): No significant differences | ALT ([2]; 8 groups of mice, sacrificed on day 7, 4B9 10 mg/kg i.p. every other day, EZ 10 mg/kg per day intragastric (FIG. 4n)): No significant differences | AST ([2]; 8 groups of mice, sacrificed on day 7, 4B9 10 mg/kg i.p. every other day, EZ 10 mg/kg per day intragastric (FIG. 4o)): No significant differences | cholesterol synthesis or absorption-related genes and their proteins in liver ([2]; sacrificed on day 7, 4B9 10 mg/kg i.p. every other day (FIGS. 4a, 4p-q)): without affecting the levels | total cholesterol in serum ([2]; sacrificed on day 7, 4B9 10 mg/kg i.p. every other day, EZ 10 mg/kg per day intragastric (FIG. 4b)): effectively reduce | triglyceride in serum ([2]; sacrificed on day 7, 4B9 10 mg/kg i.p. every other day, EZ 10 mg/kg per day intragastric (FIG. 4c)): effectively reduce | triglyceride in liver ([2]; sacrificed on day 7, 4B9 10 mg/kg i.p. every other day, EZ 10 mg/kg per day intragastric (FIG. 4e)): effectively reduce | total amount of total cholesterol in bile ([2]; sacrificed on day 7, 4B9 10 mg/kg i.p. every other day, EZ 10 mg/kg per day intragastric (FIG. 4g)): increased | total amount of total bile acid in bile ([2]; sacrificed on day 7, 4B9 10 mg/kg i.p. every other day, EZ 10 mg/kg per day intragastric (FIG. 4i)): increased | total cholesterol in liver ([2]; sacrificed on day 7, 4B9 10 mg/kg i.p. every other day, EZ 10 mg/kg per day intragastric (FIG. 4d)): effectively reduce | cholesterol efflux-related genes and their proteins (LXRs, ABCG8, ABCA1, CYP7A1) in liver [2, 7]: increased levels | lipid synthesis-related genes and their proteins (SREBP1, FASN) in liver [2, 7]: inhibited the levels | protein stability of LXRα (LXRα [3]): significantly increase | protein stability of LXRα (LXRα [4]): significantly increase | cholesterol synthesis or absorption-related genes and their proteins in liver ([5]; 4B9 10 mg/kg/day i.p. every other day (FIGS. 3a, 3q-r)): without affecting the levels | total cholesterol in serum ([5]; 4B9 10 mg/kg/day i.p. every other day, atorvastatin 30 mg/kg/day intragastric daily (FIG. 3b)): effectively reduce | triglyceride in serum ([5]; 4B9 10 mg/kg/day i.p. every other day, atorvastatin 30 mg/kg/day intragastric daily (FIG. 3c)): effectively reduce | triglyceride in liver ([5]; 4B9 10 mg/kg/day i.p. every other day, atorvastatin 30 mg/kg/day intragastric daily (FIG. 3e)): effectively reduce | total amount of total cholesterol in bile ([5]; 4B9 10 mg/kg/day i.p. every other day, atorvastatin 30 mg/kg/day intragastric daily (FIG. 3g)): increased | total amount of total bile acid in bile ([5]; 4B9 10 mg/kg/day i.p. every other day, atorvastatin 30 mg/kg/day intragastric daily (FIG. 3i)): increased | total cholesterol in feces ([5]; 4B9 10 mg/kg/day i.p. every other day, atorvastatin 30 mg/kg/day intragastric daily (FIG. 3j)): significantly increased | total cholesterol in liver ([5]; 4B9 10 mg/kg/day i.p. every other day, atorvastatin 30 mg/kg/day intragastric daily (FIG. 3d)): effectively reduce | lipid synthesis-related genes and their proteins (SREBP1, FASN) in liver ([5]; 4B9 10 mg/kg/day i.p. every other day, atorvastatin 30 mg/kg/day intragastric daily (FIGS. 3a, 3q-r)): inhibited the levels

— patent US20260234268A1, “ANTI-ASGR1 MONOCLONAL ANTIBODY AND USE THEREOF” (CHOLESGEN (SHANGHAI) CO., LTD., priority 2022, published 2026)
